Measured values taken from article PMC2930513.

What was measured:
[1] = biological target: HIV-1 BaL Env trimer (cleaved gp120/gp41) on Gag-Env VLPs (HIV-1 strain BaL); experiment: native gel or EMSA
[2] = biological target: HIV-1 JR-FL Env trimer (cleaved gp120/gp41) from JR-FL Gag-Env VLPs (HIV-1 strain JR-FL); experiment: native gel or EMSA

HIV-1 BaL Env trimer (cleaved gp120/gp41) on Gag-Env VLPs (complex)
stoichiometry N [1]: 3

HIV-1 JR-FL Env trimer (cleaved gp120/gp41) from JR-FL Gag-Env VLPs (complex)
stoichiometry N [2]: 3
